The record followed here is patent US7736875B2, “Dipeptidyl peptidase I crystal structure and its uses” (Prozymex A/S, priority 2000, dated 2010).

For data set [1], the system named is one or more cysteine peptidases present in the eluates of the Butyl SEPHAROSE FF column. The data set is described as follows: Proteolytic processing of immature DPPI peptides in Butyl Sepharose FF eluate (SDS-PAGE). It is filed as biochemical. Conditions: eluate incubated at pH 4.5, 4° C. Here is the method:
DPPI eluted from the hydrofobic interaction column was in general only partially processed to the mature, active form. To complete the processing, the eluate was incubated at pH 4.5 and 4° C. for 18-40 hours to convert the immature peptides to the peptides of mature rrDPPI or rhDPPI. […] Furthermore, the rate of processing was dependent on the pH of the buffer during incubation. No conversion of the immature peptides could be observed at pH 7.0 as determined by SDS-PAGE analysis but processing was observed when incubation was performed at pH 6.5 or below. The processing proceeded at highest rate at about pH 4.5. The fully processed rhDPPI and rrDPPI were finally purified and concentrated on Q-SEPHAROSE™ FF as described above. Recombinant hDPPI was quantified using an extinction coefficient at 280 nm of 2.0.

A further data set can be described thus: DPPI transferase assay. It is filed as biochemical, rat. The conditions noted are these: FIG. 8. The text has this:
The rate of transfer of dipeptides from a donor peptide to the nucleophilic amino terminus of an acceptor peptide, the ratio of dipeptide transfer to hydrolysis and the stability of elongated peptide product to hydrolytic turnover are estimated in a transferase assay.
In these reactions, X and Y are any amino acid residue with the exception of prolyl. X is preferably Phe and Y is preferably Arg or Lys and pNA is a para-nitroanilide group. H and COOH indicate unblocked peptide amino and carboxy termini, respectively. In the transferase reaction, DPPI catalyses the transpeptidation of dipeptide H-Pro-X from the peptide amide to the free amino group of residue Y. The dipeptide can not be transferred to a second H-Pro-X-NH2 molecule because of the N-terminal Pro residue. The progress of the transpeptidation reaction is monitored in the trypsin cleavage reaction, in which produced H-Pro-X-Y-pNA tripeptide is hydrolysed following the addition of trypsin endoprotease to an aliquot of reaction mixture. Trypsin hydrolyses H-Pro-X-Arg/Lys-pNA much more rapidly than H-Arg/Lys-pNA (low aminopeptidase activity) making it possible to determine the amount of tripeptide formed. The transferase reaction is essentially stopped upon addition of trypsin because the reactants are diluted 10-fold (resulting in an approximately 100-fold lower rate) and because DPPI is unstable at pH 8.3.
The concentration of tripeptide obtained also depends on the rates of hydrolysis of the initial substrate (Hydrolysis reaction 1) and of the tripeptide (Hydrolysis reaction 2):
The hydrolysed peptides […] and […] are not DPPI substrates and can no longer be used in peptide synthesis. Accordingly, the peptidase activity of DPPI degrades both the trypsin substrate (before trypsin is added to the reaction mixture) and one of its precursors.
20 μl of DPPI (1-50 U/ml) in 20 mM Tris-HCl or sodium phosphate-NaOH buffer pH 7.5 is mixed with 20 μl 20 mM dithiothreitol (DTT) and allowed to incubate for 30 min at 5-37° C., preferably 12° C. Meanwhile, 10 μl 400 mM H-Pro-X-NH2 and 10 μl 500 mM H-Y-pNA (both in 100% dimethyl formamide) and 140 μl […] Tris-HCl or sodium phosphate-NaOH buffer, pH 7.5 are mixed and incubated at the same temperature. The transferase and hydrolysis reactions are initiated by the addition of reduced and activated DPPI to the peptide mixture (same temperature). All reaction mixtures should include a minimum of 10 mM chloride.
The progress of the reaction is followed by mixing 10 μl aliquots with 1 μM trypsin in 0.1 M Tris-HCl buffer pH 8.3 and at 5-37° C., preferably 20-37° C. A yellow colour quickly appears. After 10 min, 1000 μl of water are added and the absorbance at 405 nm is measured against an appropriate blank.

As to `CC(C)C[C@H](NC(=O)[C@H]1O[C@@H]1C(=O)O)C(=O)NCCCCN=C(N)N` [E-64, reference compound], the “proteolytic processing of the immature peptides to mature rrDPPI or rhDPPI” value in data set [1] (addition of 1 μM E-64) is listed as “completely blocked”.

As for “D274Q: rat DPPI active site mutant Asp274 to Gln274”, the “influence of mutation on rat DPPI transferase activity” value in “DPPI transferase assay” (versus wild type rat DPPI) was “no favourable influence”.

On to “N226S229:Q226N229: rat DPPI active site double mutant Asn226:Ser229 to Gln226:Asn229”, for which, in the data set “DPPI transferase assay”, the “stability of the produced tripeptide product in presence of the variant” value was “much more stable” and the “transferase activity versus hydrolytic activity (maximum level of tripeptide)” value was “favoured over the hydrolytic activity”. Further, the “rate of generation of the tripeptide substrate” value in the data set “DPPI transferase assay” (compared with wild type and D274Q) is on record as “nearly as fast as the other two variants”.

B1: chicken cystatin: non-covalent protein inhibitor of cysteine peptidases of the cystatin family (protein, UniProt P01038 24-139, looked up)
Cystatin: SEDRSRLLGAPVPVDENDEGLQRALQFAMAEYNRASNDKYSSRVVRVISAKRQLVSGIKYILQVEIGRTTCPKSSGDLQSCEFHDEPEMAKYTTCTFVVYSIPWLNQIKLLESKCQ
In the case of B1, the “proteolytic processing of the immature peptides to mature rrDPPI or rhDPPI” value in data set [1] (addition of 0.1 μM chicken cystatin) is listed as “completely blocked”.
